Experimental findings from the supplement of paper PMC9112550, “Optimization of the antimicrobial peptide Bac7 by deep mutational scanning” (BMC Biology, 2022) are described below.

The data set relates to Escherichia coli TOP10. The experiment in a line: shrunken log2 fold change of peptide-encoding DNA abundance (4.5 h post-induction vs induction); higher = less antimicrobial activity (less host growth inhibition). The settings on record: time post-induction: 4.5 h; library: site-saturation at positions 5, 18, 19, 20.
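Further: peptides expressed intracellularly from a pBAD plasmid library in pooled LB shake-flask culture, induced with 0.3% L-arabinose, DNA abundance read by NGS, three biological replicates, DESeq2 with apeglm shrinkage.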

RRIRQRPPRLPRPRPRPLTMPRP: the “shrunken log2 fold change” value was found to be 0.00947.
As for RRIRPRPPRLPRPRPRPNDMPRP, the “shrunken log2 fold change” value was -0.208.
For RRIRFRPPRLPRPRPRPIQWPRP, the “shrunken log2 fold change” value came to 0.0986.
As to RRIRKRPPRLPRPRPRPNIAPRP, the “shrunken log2 fold change” value was determined as 0.262.
RRIRKRPPRLPRPRPRPMTPPRP: the “shrunken log2 fold change” value is 0.334.
For the sequence RRIRHRPPRLPRPRPRPFYCPRP, the “shrunken log2 fold change” value is -0.946.
Turning to RRIRSRPPRLPRPRPRPHGVPRP, the “shrunken log2 fold change” value is 0.013.
On to RRIRIRPPRLPRPRPRPCEKPRP, for which the “shrunken log2 fold change” value was -0.626.
Take RRIRCRPPRLPRPRPRPHDHPRP: the “shrunken log2 fold change” value is -0.307.
Turning to RRIRYRPPRLPRPRPRPATHPRP, the “shrunken log2 fold change” value was -0.318.
Take RRIRMRPPRLPRPRPRPTHSPRP: the “shrunken log2 fold change” value was 0.483.
Then RRIRDRPPRLPRPRPRPYRDPRP, with -0.444; and RRIRNRPPRLPRPRPRPKGKPRP, with 0.0351.
With RRIRTRPPRLPRPRPRPDDRPRP, the “shrunken log2 fold change” value stood at 0.0143.
Then RRIRNRPPRLPRPRPRPRLRPRP, with 0.0785; and RRIRIRPPRLPRPRPRPFGGPRP, with -0.103.
To RRIRHRPPRLPRPRPRPFEFPRP belongs -0.0195; to RRIRVRPPRLPRPRPRPEFWPRP, 0.439; to RRIRHRPPRLPRPRPRPDTWPRP, -1.13.
As for RRIRVRPPRLPRPRPRPIMVPRP, the “shrunken log2 fold change” value was -0.219.
Then RRIRFRPPRLPRPRPRPMSRPRP, with 0.0534.
Consider RRIRYRPPRLPRPRPRPRAEPRP, for which the “shrunken log2 fold change” value is -0.162.
As to RRIRQRPPRLPRPRPRPWMPPRP, the “shrunken log2 fold change” value is -0.167.
With RRIRVRPPRLPRPRPRPQENPRP, the “shrunken log2 fold change” value was -0.119.
Consider RRIRARPPRLPRPRPRPYPAPRP, for which the “shrunken log2 fold change” value was -0.146.
On to RRIRTRPPRLPRPRPRPDTYPRP, for which the “shrunken log2 fold change” value was -0.202.
As for RRIRARPPRLPRPRPRPTNEPRP, the “shrunken log2 fold change” value was found to be 0.344.
Turning to RRIRRRPPRLPRPRPRPHAVPRP, the “shrunken log2 fold change” value stood at 0.251.
With RRIRDRPPRLPRPRPRPFDHPRP, the “shrunken log2 fold change” value stood at 0.0299.
Turning to RRIRMRPPRLPRPRPRPHGEPRP, the “shrunken log2 fold change” value worked out at 0.365.
RRIRCRPPRLPRPRPRPVAMPRP: the “shrunken log2 fold change” value was -0.125.
As to RRIRIRPPRLPRPRPRPYFKPRP, the “shrunken log2 fold change” value is -0.511.
As to RRIRTRPPRLPRPRPRPSYQPRP, the “shrunken log2 fold change” value was -0.18.
Take RRIRTRPPRLPRPRPRPCMQPRP: the “shrunken log2 fold change” value is 1.86.
RRIRFRPPRLPRPRPRPNVKPRP: the “shrunken log2 fold change” value is -0.574.
On to RRIRVRPPRLPRPRPRPDTWPRP, for which the “shrunken log2 fold change” value was -0.407.
As for RRIRYRPPRLPRPRPRPELPPRP, the “shrunken log2 fold change” value is 0.0248.
Consider RRIRDRPPRLPRPRPRPNDDPRP, for which the “shrunken log2 fold change” value was found to be 0.226.
As to RRIRLRPPRLPRPRPRPAWFPRP, the “shrunken log2 fold change” value came out at 0.103.
Take RRIRMRPPRLPRPRPRPPKAPRP: the “shrunken log2 fold change” value is 1.02.
For RRIRIRPPRLPRPRPRPSCCPRP, the “shrunken log2 fold change” value was -0.471.
With RRIRWRPPRLPRPRPRPWCIPRP, the “shrunken log2 fold change” value is -0.225.
With RRIRTRPPRLPRPRPRPLRLPRP, the “shrunken log2 fold change” value is 0.219.
To RRIRDRPPRLPRPRPRPFMWPRP belongs -0.102; to RRIRTRPPRLPRPRPRPENKPRP, -0.178.
As for RRIRIRPPRLPRPRPRPPYNPRP, the “shrunken log2 fold change” value is -0.854.
To RRIRARPPRLPRPRPRPSAIPRP belongs 0.173; to RRIRERPPRLPRPRPRPQDYPRP, -0.091.
For RRIRTRPPRLPRPRPRPPKWPRP, the “shrunken log2 fold change” value was 0.181.
For the sequence RRIRSRPPRLPRPRPRPVFAPRP, the “shrunken log2 fold change” value was found to be 0.218.
In the case of RRIRARPPRLPRPRPRPSHKPRP, the “shrunken log2 fold change” value worked out at 0.0213.
To RRIRKRPPRLPRPRPRPWAKPRP belongs 0.0651; to RRIRLRPPRLPRPRPRPKCQPRP, -0.319.
Turning to RRIRSRPPRLPRPRPRPLTNPRP, the “shrunken log2 fold change” value was -0.101.
On to RRIRQRPPRLPRPRPRPLVEPRP, for which the “shrunken log2 fold change” value is -0.0628.
Regarding RRIRFRPPRLPRPRPRPPGVPRP, the “shrunken log2 fold change” value amounted to 0.168.
Then RRIRARPPRLPRPRPRPETSPRP, with 0.912; and RRIRSRPPRLPRPRPRPSWRPRP, with 0.0852.
For RRIRRRPPRLPRPRPRPQMYPRP, the “shrunken log2 fold change” value is -0.183.
As for RRIRWRPPRLPRPRPRPWHRPRP, the “shrunken log2 fold change” value was -0.0473.
For RRIRERPPRLPRPRPRPWANPRP, the “shrunken log2 fold change” value was -0.0497.
As to RRIRDRPPRLPRPRPRPYSDPRP, the “shrunken log2 fold change” value was 0.0396.
With RRIRIRPPRLPRPRPRPYSVPRP, the “shrunken log2 fold change” value is -0.07.
As to RRIRRRPPRLPRPRPRPHCCPRP, the “shrunken log2 fold change” value was found to be 0.208.
On to RRIRWRPPRLPRPRPRPHNCPRP, for which the “shrunken log2 fold change” value was -0.349.
To RRIRYRPPRLPRPRPRPSNHPRP belongs -0.29.
RRIRQRPPRLPRPRPRPTTTPRP: the “shrunken log2 fold change” value is -0.126.
As to RRIRWRPPRLPRPRPRPWTCPRP, the “shrunken log2 fold change” value was 0.0612.
To RRIRWRPPRLPRPRPRPSTSPRP belongs -0.302; to RRIRERPPRLPRPRPRPEEQPRP, 0.221; to RRIRDRPPRLPRPRPRPRCHPRP, -0.0835.
Turning to RRIRPRPPRLPRPRPRPHVPPRP, the “shrunken log2 fold change” value turned out to be 3.25.
With RRIRARPPRLPRPRPRPDYFPRP, the “shrunken log2 fold change” value was -0.0428.
On to RRIRQRPPRLPRPRPRPTYDPRP, for which the “shrunken log2 fold change” value was -0.338.
For RRIRMRPPRLPRPRPRPDLNPRP, the “shrunken log2 fold change” value came out at 0.178.
Then RRIRGRPPRLPRPRPRPQFTPRP, with 0.104.
As to RRIRPRPPRLPRPRPRPNWTPRP, the “shrunken log2 fold change” value came to 0.218.
Then RRIRSRPPRLPRPRPRPEPTPRP, with 0.467; and RRIRQRPPRLPRPRPRPMCCPRP, with 0.0301; and RRIRWRPPRLPRPRPRPYMEPRP, with -0.101.
Then RRIRMRPPRLPRPRPRPECAPRP, with 3.56; and RRIRSRPPRLPRPRPRPGHHPRP, with -0.0988.
RRIRKRPPRLPRPRPRPNYAPRP: the “shrunken log2 fold change” value is -0.0324.
As to RRIRRRPPRLPRPRPRPGFCPRP, the “shrunken log2 fold change” value was 0.37.
To RRIRERPPRLPRPRPRPETSPRP belongs 0.122.
To RRIRSRPPRLPRPRPRPKQTPRP belongs -0.159.
To RRIRRRPPRLPRPRPRPGGEPRP belongs 0.356; to RRIRERPPRLPRPRPRPANGPRP, -0.042; to RRIRFRPPRLPRPRPRPHDWPRP, 0.0906.
Turning to RRIRFRPPRLPRPRPRPCHVPRP, the “shrunken log2 fold change” value amounted to 0.0269.
In the case of RRIRMRPPRLPRPRPRPCYGPRP, the “shrunken log2 fold change” value was -0.534.
Turning to RRIRMRPPRLPRPRPRPSAQPRP, the “shrunken log2 fold change” value came out at 0.623.
For RRIRSRPPRLPRPRPRPEAFPRP, the “shrunken log2 fold change” value was -0.0131.
Turning to RRIRFRPPRLPRPRPRPTQWPRP, the “shrunken log2 fold change” value was 0.267.
For RRIRKRPPRLPRPRPRPSTIPRP, the “shrunken log2 fold change” value is -0.0803.
RRIRNRPPRLPRPRPRPGWFPRP: the “shrunken log2 fold change” value was -0.00934.
Regarding RRIRWRPPRLPRPRPRPLMPPRP, the “shrunken log2 fold change” value stood at 0.486.
Regarding RRIRIRPPRLPRPRPRPQTGPRP, the “shrunken log2 fold change” value is -0.139.
Take RRIRHRPPRLPRPRPRPHGKPRP: the “shrunken log2 fold change” value is -0.038.
With RRIRFRPPRLPRPRPRPLYNPRP, the “shrunken log2 fold change” value is -0.644.
For RRIRQRPPRLPRPRPRPIGKPRP, the “shrunken log2 fold change” value was 0.0819.
As to RRIRHRPPRLPRPRPRPTVPPRP, the “shrunken log2 fold change” value was -0.0133.
As to RRIRLRPPRLPRPRPRPGEQPRP, the “shrunken log2 fold change” value was 0.0657.
As for RRIRHRPPRLPRPRPRPHYIPRP, the “shrunken log2 fold change” value is -0.35.
On to RRIRNRPPRLPRPRPRPMNHPRP, for which the “shrunken log2 fold change” value stood at 0.0515.
For the sequence RRIRMRPPRLPRPRPRPMCAPRP, the “shrunken log2 fold change” value turned out to be 1.57.
To RRIRARPPRLPRPRPRPGHWPRP belongs 0.628; to RRIRYRPPRLPRPRPRPSRCPRP, -0.154.
Take RRIRNRPPRLPRPRPRPIRDPRP: the “shrunken log2 fold change” value was determined as 0.201.
For the sequence RRIRQRPPRLPRPRPRPPICPRP, the “shrunken log2 fold change” value came out at 0.0388.
In the case of RRIRQRPPRLPRPRPRPWHYPRP, the “shrunken log2 fold change” value was -0.484.
Take RRIRVRPPRLPRPRPRPWIKPRP: the “shrunken log2 fold change” value amounted to 0.0141.
On to RRIRVRPPRLPRPRPRPQLDPRP, for which the “shrunken log2 fold change” value was determined as 0.269.
RRIRERPPRLPRPRPRPEMGPRP: the “shrunken log2 fold change” value was -0.116.
In the case of RRIRERPPRLPRPRPRPCEFPRP, the “shrunken log2 fold change” value is -0.283.
Regarding RRIRTRPPRLPRPRPRPEGDPRP, the “shrunken log2 fold change” value stood at 0.0354.
On to RRIRGRPPRLPRPRPRPVLKPRP, for which the “shrunken log2 fold change” value was found to be 0.402.
In the case of RRIRPRPPRLPRPRPRPVRWPRP, the “shrunken log2 fold change” value is 0.819.
Turning to RRIRERPPRLPRPRPRPTHIPRP, the “shrunken log2 fold change” value was -0.924.
For RRIRIRPPRLPRPRPRPDRMPRP, the “shrunken log2 fold change” value is -0.0164.
To RRIRYRPPRLPRPRPRPLVGPRP belongs -0.457; to RRIRYRPPRLPRPRPRPQHDPRP, -1.4.
For RRIRPRPPRLPRPRPRPCDCPRP, the “shrunken log2 fold change” value was 0.0287.
Turning to RRIRWRPPRLPRPRPRPWKTPRP, the “shrunken log2 fold change” value turned out to be 0.149.
Take RRIRARPPRLPRPRPRPDTHPRP: the “shrunken log2 fold change” value came to 0.0877.
